B1: Azoarcus group I ribozyme (parent)
chain: GUGCCUUGCGCCGGGAAACCACGCAAGGGAUGGUGUCAAAUUCGGCGAAACCUAAGCGCCCGCCCGGGCGUAUGGCAACGCCGAGCCAAGCUUCGGCGCCUGCGCCGAUGAAGGUGUAGAGACUAGACGGCACCCACCUAAGGCAAACGCUAUGGUGAAGGCAUAGUCCAGGGAGUGGCGAAAGUCACACAAACCGG

Variants of: B1
Test: reverse-splicing fitness (ratio to wild type); higher = more active; in vitro selection; Mg2+ level not given
In short: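 An in vitro group I ribozyme library with randomized positions was T7-transcribed and gel-purified. In triplicate, 10 pmol RNA in EPPS pH 7.5 was reacted with 50 pmoles of a 30-nt RNA substrate for 1 h at 37 °C across several added MgCl2 levels (1–48 mM), then stopped with EDTA. Products were reverse transcribed from a substrate-complementary primer, PCR-amplified and sequenced (HiSeq 4000). Fitness is a variant's read proportion after selection over that before, normalised to wild type.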

Variant	reverse-splicing fitness
C82G A111C A120C C150U U176G	0.00767
C82G A111C A120C C150U U176A	0.0157
C82G A111C A120C C150U U176C	0.0226
C82G A111C A120G C150G C169U	0.00835
C82G A111C A120G C150G C169G	0.00781
C82G A111C A120G C150G C169A	0.00888
C82G A111C A120G A145C C150U C169G	0.00885
C82G A111C A120G A145C C150U C169U	0.00687
C82G A111C A120G A145C C150U C169A	0.00816
C82G A111C A120G A145C U176G	0.00507
C82G A111C A120G A145C U176C	0.0166
C82G A111C A120G A145C U176A	0.0152
C82G A111C A120C C150U C169G U176A	0.0152
C82G A111C A120C C150U C169G U176G	0.0066
C82G A111C A120C C150U C169G U176C	0.0171
C82G A111C A120C C150A U176C	0.0203
C82G A111C A120C C150A U176G	0.00842
C82G A111C A120C C150A U176A	0.0125
C82G A111C A120G A145C C150G C169A U176A	0.00812
C82G A111C A120G A145C C150G C169A U176C	0.00738
C82G A111C A120G A145C C150G C169A U176G	0.005

Variant	reverse-splicing fitness
C82G A111C A120G A145G C150A C169A	0.0104
C82G A111C A120G A145G C150A C169G	0.00949
C82G A111C A120G A145G C150A C169U	0.00904
C82G A111C A120G A145U C169U U176G	0.00395
C82G A111C A120G A145U C169U U176A	0.0144
C82G A111C A120G A145U C169U U176C	0.014
C82G A111C A120G A145C C150G C169U U176C	0.0124
C82G A111C A120G A145C C150G C169U U176G	0.00513
C82G A111C A120G A145C C150G C169U U176A	0.00907
C82G A111C A120G A145U C150U C169G U176G	0.00519
C82G A111C A120G A145U C150U C169G U176A	0.0127
C82G A111C A120G A145U C150U C169G U176C	0.0134
C82G A111C A120G A145U C169A	0.00975
C82G A111C A120G A145U C169U	0.0104
C82G A111C A120G A145U C169G	0.0132
C82G A111C A120G A145G C150U C169G U176G	0.00501
C82G A111C A120G A145G C150U C169G U176C	0.0175
C82G A111C A120G A145G C150U C169G U176A	0.0133
C82G A111C A120C C169A U176G	0.0072
C82G A111C A120C C169A U176C	0.0194
C82G A111C A120C C169A U176A	0.0156

Variant	reverse-splicing fitness
C82G A111C A120G A145G C150U C169A	0.0112
C82G A111C A120G A145G C150U C169U	0.011
C82G A111C A120G A145G C150U C169G	0.0134
C82G A111C A120G A145C C150U C169U U176A	0.0147
C82G A111C A120G A145C C150U C169U U176C	0.0119
C82G A111C A120G A145C C150U C169U U176G	0.0048
C82G A111C A120G A145C C150A U176C	0.011
C82G A111C A120G A145C C150A U176G	0.00463
C82G A111C A120G A145C C150A U176A	0.0121
C82G A111C A120C C150G U176C	0.00847
C82G A111C A120C C150G U176G	0.00427
C82G A111C A120C C150G U176A	0.00574
C82G A111C A120G A145U C150G C169A U176A	0.00957
C82G A111C A120G A145U C150G C169A U176G	0.00496
C82G A111C A120G A145U C150G C169A U176C	0.0101
C82G A111C A120G A145G C150A C169U U176C	0.0159
C82G A111C A120G A145G C150A C169U U176G	0.00638
C82G A111C A120G A145G C150A C169U U176A	0.014
C82G A111C A120C C150G C169A U176G	0.00619
C82G A111C A120C C150G C169A U176C	0.0137
C82G A111C A120C C150G C169A U176A	0.00918

Variant	reverse-splicing fitness
C82G A111C A120C C150A C169G U176G	0.00766
C82G A111C A120C C150A C169G U176C	0.0225
C82G A111C A120C C150A C169G U176A	0.0183
C82G A111C A120G A145G C150G C169U U176C	0.0127
C82G A111C A120G A145G C150G C169U U176A	0.0106
C82G A111C A120G A145G C150G C169U U176G	0.00731
C82G A111C A120G A145C C150U C169A U176A	0.0113
C82G A111C A120G A145C C150U C169A U176C	0.00666
C82G A111C A120G A145C C150U C169A U176G	0.00557
C82G A111C A120G A145G C150U C169U U176C	0.0145
C82G A111C A120G A145G C150U C169U U176G	0.00501
C82G A111C A120G A145G C150U C169U U176A	0.0141
C82G A111C A120G A145G C150U C169A U176C	0.0147
C82G A111C A120G A145G C150U C169A U176G	0.00695
C82G A111C A120G A145G C150U C169A U176A	0.0152
C82G A111C A120C A145U C169G U176C	0.0177
C82G A111C A120C A145U C169G U176G	0.00713
C82G A111C A120C A145U C169G U176A	0.0141
C82G A111C A120G A145G C169G	0.0143
C82G A111C A120G A145G C169U	0.0104

From the RNAGym collection of RNA variant scans (doi:10.1093/molbev/msab373)
